T1: Human hepcidin peptide (hepcidin-25) (human)
T1 sequence (peptide): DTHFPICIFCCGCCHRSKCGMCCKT

B1: Hepcidin MAb 583 (antibody, from a related filing, V domains shown, part only)
VH: QIQLVQSGPELKKPGETVKISCKASGYTFTNYGMNWVKQAPGKGLKWMGWINTYTGEPTYADDFKGRFAFSLETSASTAYLQINNLKNEDTATYFCTTYATSWYWGQG
VL: DIVLTQSPASLAVSLGQRATISCRASESVDSYGNSFMHWYQQKPGQPPKLLIYRASNLESGIPARFSGSGSRTDFTLTINPVEADDVATYYCQQSNEDLTFG

What was measured:
[1] = biological target: T1, Human hepcidin peptide (hepcidin-25) (human); test: Biacore (SPR); upper end of the estimated range 7-8 pM
[2] = biological target: T1, Human hepcidin peptide (hepcidin-25) (human); test: Biacore (SPR); lower end of the estimated range 7-8 pM
[3] = biological target: T1, Human hepcidin peptide (hepcidin-25) (human); test: method not stated
Hepcidin MAb 583 [4] = test: competitive ELISA on mAb 583 coated wells; competitor biotinylated hepcidin-25 tracer; standard at 1000 ng/mL
Sequence of Hepcidin MAb 583 (heavy, as listed by the source, chain 1 of 2): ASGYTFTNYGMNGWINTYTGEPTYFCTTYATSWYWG
Sequence of Hepcidin MAb 583 (light, as listed by the source, chain 2 of 2): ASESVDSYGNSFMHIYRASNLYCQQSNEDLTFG

Hepcidin MAb 583 [5] = test: competitive ELISA on mAb 583 coated wells; competitor biotinylated hepcidin-25 tracer; standard at 0 ng/mL
Hepcidin MAb 583 [6] = test: competitive ELISA on mAb 583 coated wells; competitor biotinylated hepcidin-25 tracer; standard at 50 ng/mL
Hepcidin MAb 583 [7] = test: competitive ELISA on mAb 583 coated wells; competitor biotinylated hepcidin-25 tracer; standard at 100 ng/mL
Hepcidin MAb 583 [8] = test: competitive ELISA on mAb 583 coated wells; competitor biotinylated hepcidin-25 tracer; standard at 2.5 ng/mL
Hepcidin MAb 583 [9] = test: competitive ELISA on mAb 583 coated wells; competitor biotinylated hepcidin-25 tracer; standard at 250 ng/mL
Hepcidin MAb 583 [10] = test: competitive ELISA on mAb 583 coated wells; competitor biotinylated hepcidin-25 tracer; standard at 10 ng/mL
Hepcidin MAb 583 [11] = test: competitive ELISA on mAb 583 coated wells; competitor biotinylated hepcidin-25 tracer; standard at 25 ng/mL

| Binder | Kd [1] | Kd [2] | affinity (unit not given) [3] | Absorbance (450 nm) (Hepcidin MAb 583 [4]) | Absorbance (450 nm) (Hepcidin MAb 583 [5]) | Absorbance (450 nm) (Hepcidin MAb 583 [6]) | Absorbance (450 nm) (Hepcidin MAb 583 [7]) | Absorbance (450 nm) (Hepcidin MAb 583 [8]) | Absorbance (450 nm) (Hepcidin MAb 583 [9]) | Absorbance (450 nm) (Hepcidin MAb 583 [10]) | Absorbance (450 nm) (Hepcidin MAb 583 [11]) |
| --- | --- | --- | --- | --- | --- | --- | --- | --- | --- | --- | --- |
| B1 | 7 to 8 pM | 7 to 8 pM | 5.16e-11 | – | – | – | – | – | – | – | – |
| DTHFPICIFCCGCCHRSKCGMCCKT [Human hepcidin peptide (hepcidin-25)] | – | – | – | 0.03 OD 450 nm | 2.36 OD 450 nm | 0.47 OD 450 nm | 0.24 OD 450 nm | 2.14 OD 450 nm | 0.1 OD 450 nm | 1.61 OD 450 nm | 0.9 OD 450 nm |

Source: patent US20200300873A1
